Measurements as given in publication PMC2925307.

Target: β subunit of Roseobacter denitrificans propionyl-coenzyme A carboxylase (Roseobacter denitrificans)
Assay: crystal structure

stoichiometry N: 6
Substance: β subunit of Roseobacter denitrificans propionyl-coenzyme A carboxylase
